Patent publication US20030036181A1 (MAXYGEN, published 2003)

Biological target: T1, human FSH receptor, stably expressed on CHO K1 cells (CHO FSH-R/CRE-luc cell line) (human, UniProt P23945 18-695)
T1 sequence (looked up): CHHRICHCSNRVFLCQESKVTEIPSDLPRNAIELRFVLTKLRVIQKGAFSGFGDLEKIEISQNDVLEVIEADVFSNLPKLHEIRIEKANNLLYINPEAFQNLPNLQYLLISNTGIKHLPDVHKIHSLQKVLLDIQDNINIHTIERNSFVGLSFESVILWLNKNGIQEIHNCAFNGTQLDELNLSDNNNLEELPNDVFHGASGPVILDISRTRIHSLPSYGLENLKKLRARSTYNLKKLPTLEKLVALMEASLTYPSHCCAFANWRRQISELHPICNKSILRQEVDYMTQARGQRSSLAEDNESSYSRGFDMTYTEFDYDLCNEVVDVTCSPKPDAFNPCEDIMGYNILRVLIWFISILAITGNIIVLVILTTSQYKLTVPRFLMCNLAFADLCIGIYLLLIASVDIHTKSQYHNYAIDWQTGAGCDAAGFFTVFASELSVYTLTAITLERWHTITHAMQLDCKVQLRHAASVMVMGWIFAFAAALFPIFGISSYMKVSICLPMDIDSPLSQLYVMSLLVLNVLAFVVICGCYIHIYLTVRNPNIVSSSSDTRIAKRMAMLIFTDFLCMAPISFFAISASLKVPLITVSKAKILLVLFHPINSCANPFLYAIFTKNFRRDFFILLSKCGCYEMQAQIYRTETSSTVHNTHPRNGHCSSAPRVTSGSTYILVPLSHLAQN
Experiment: cell-based or functional assay

specific activity (in vitro bioactivity in the FSH luciferase assay over FSH content by ELISA), relative to the wildtype reference: ~0.33 fold of wildtype FSH
B1: FSH1208: variant form of FSH containing two N-linked glycosylations at the N-terminus of the alpha subunit (ligand)
chain 1: not shown
chain 2: CELTNITIAIEKEECRFCISINTTWCAGYCYTRDLVYKDPARPKIQKTCTFKELVYETVRVPGCAHHADSLYTYPVATQCHCGKCDSDSTDCTVRGLGPSYCSFGEMKE
modifications: both asparagine residues of the extension … are glycosylated
